Measured values: US20260167731A1 (DOMAIN THERAPEUTICS, published 2026)
Where “and” joins values, the source holds several entries; their conditions need not be identical. Identical values can stand only once.

Experiments:
human CCR8 [1] = biological target: T1, human CCR8 (human, UniProt P51685 1-355); assay: cell-based or functional assay
human CCR8 [2] = biological target: T1, human CCR8; assay: cell-based or functional assay; remark: listed apart in the source
human CCR8 [3] = biological target: T1, human CCR8; assay: cell-based or functional assay; remark: listed apart in the source
human CCR8 [4] = biological target: T1, human CCR8; assay: cell-based or functional assay; remark: listed apart in the source
human CCR8 [5] = biological target: T1, human CCR8; assay: cell-based or functional assay; remark: listed apart in the source
human CCR8 [6] = biological target: T1, human CCR8; assay: flow cytometry, HUT78 cells (endogenous CCR8)
Protocol: The same staining protocol was applied on human CCR8 transfected CHO cell line versus wild type CHO cell line, cutaneous T cell lymphoma HUT78 cell line and human activated T cell model.
Briefly, 1·10⁵ cells per well in a 96 well plate were incubated with a dilution of unconjugated anti-CCR8 mAb at 10 μg/mL then diluted at 1/3.33, 4 dilution points (during 30 min at 4° C.). In human activated T cells model, prior to mAb incubation, cells were first incubated with 200 nM of hCCL1 (R&D Systems, Minneapolis, MN, USA) or buffer PBS (Invitrogen by Thermofisher Scientific, Illkirch-Graffenstaden, France) supplemented by 2% Fetal Bovine Serum (Invitrogen by Thermofisher Scientific, Illkirch-Graffenstaden, France) and 2 mM EDTA (Invitrogen by Thermofisher Scientific, Illkirch-Graffenstaden, France) during 1 hour at 4° C. To determine EC50 value, 8 concentrations of anti-CCR8 mAb were tested. Unbound antibodies were washed away with PBS (Invitrogen by Thermofisher Scientific, Illkirch-Graffenstaden, France) supplemented by 2% Fetal Bovine Serum (Invitrogen by Thermofisher Scientific, Illkirch-Graffenstaden, France) and 2 mM EDTA (Invitrogen by Thermofisher Scientific, Illkirch-Graffenstaden, France). Subsequently, cells are centrifuged (5 min at 400 g) and bound antibody is detected with F(ab′)₂-Goat anti-Mouse IgG (H+L) Cross-Adsorbed Secondary Antibody, Alexa Fluor 488 (dilution 1/500) (Invitrogen by Thermofisher Scientific, Illkirch-Graffenstaden, France) or with F(ab′)₂-Goat anti-Human IgG Fc Secondary Antibody, PE (Invitrogen by Thermofisher Scientific, Illkirch-Graffenstaden, France) (dilution 1/1000) at 4° C. for 30 min. Detection reagent is washed away and cells are centrifuged (5 min at 400 g) and resuspended in 30 μL PBS. Bound detection antibody is quantified on a MacsQuant16 (Miltenyi, Gladbach, Germany) (B1 or B2 channel, 5000 events per acquisition). During the experiment, the respective isotype mAb controls (mouse IgG1, mouse IgG2a, mouse IgG2b, mouse IgG3 or human IgG1) (Biolegend, Amsterdam, The Netherlands) are included to exclude any unspecific binding events.
EC50 values were determined via nonlinear fit “log(agonist)vs.response−Variable slope (four parameters)” function of Graphpad prism. EC50 values were not constantly determined in the same experiments.

[7] = biological target: pm5, modified CCR8 related peptide (human, sulfated tyrosines at Y15 and Y17); assay: ELISA on coated CCR8 peptide (500 ng/mL), OD [cont.]
Chain of pm5, modified CCR8 related peptide (human, sulfated tyrosines at Y15 and Y17) (peptide, as listed by the source): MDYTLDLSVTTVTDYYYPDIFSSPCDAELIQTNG
Outline: (§1)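 Peptides coated at 500 ng/mL in carbonate/bicarbonate buffer; anti-CCR8 mAbs applied at 1 μg/mL and a 1/10 dilution for 90 min at room temperature. After washing, TMB substrate was developed for 15 min and OD read as a measure of mAb reactivity.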

[8] = biological target: pm6, modified CCR8 related peptide (human, sulfated tyrosines at Y16 and Y17); assay: as above
Chain of pm6, modified CCR8 related peptide (human, sulfated tyrosines at Y16 and Y17) (peptide, as listed by the source): as above
Outline: as §1

[9] = biological target: pm8, modified CCR8 related peptide (human, sulfated tyrosines at Y15, Y16 and Y17); assay: as above
Chain of pm8, modified CCR8 related peptide (human, sulfated tyrosines at Y15, Y16 and Y17) (peptide, as listed by the source): as above
Outline: as §1

[10] = biological target: T2, pwt1, unmodified CCR8 related peptide (human, none (non-sulfated Y15, Y16, Y17)); assay: as above
T2 construct: First 34 amino acids of human CCR8, synthetic; also called unmodified peptide
T2 sequence (peptide, as listed by the source): as above
Outline: as §1

[11] = biological target: pm1, modified CCR8 related peptide (human, sulfated tyrosine at Y15); assay: as above
Chain of pm1, modified CCR8 related peptide (human, sulfated tyrosine at Y15) (peptide, as listed by the source): as above
Outline: as §1

[12] = biological target: pm2, modified CCR8 related peptide (human, sulfated tyrosine at Y16); assay: as above
Chain of pm2, modified CCR8 related peptide (human, sulfated tyrosine at Y16) (peptide, as listed by the source): as above
Outline: as §1

[13] = biological target: pm3, modified CCR8 related peptide (human, sulfated tyrosine at Y17); assay: as above
Chain of pm3, modified CCR8 related peptide (human, sulfated tyrosine at Y17) (peptide, as listed by the source): as above
Outline: as §1

[14] = biological target: pm4, modified CCR8 related peptide (human, sulfated tyrosines at Y15 and Y16); assay: as above
Chain of pm4, modified CCR8 related peptide (human, sulfated tyrosines at Y15 and Y16) (peptide, as listed by the source): as above
Outline: as §1

hCCR8 SNAP-tag = biological target: T3, hCCR8 SNAP-tag (human, UniProt P51685 1-355, SNAP-tag labelled with Lumi4-Terbium); assay: HTRF Tag-lite, inhibition of hCCL1-AF647 binding to SNAP-tag hCCR8 on HEK-293
T3 construct: also called human CCR8 engineered with a SNAP-tag at the N-terminus; not shown: SNAP-tag at the N-terminus
Protocol: The inhibition of CCL1 binding to hCCR8 was evaluated with the Tag-Lite® technology from Cisbio (Revvity). Human CCR8 is engineered with a SNAP-tag at the N-terminus of the GPCR. hCCR8 SNAP-tag is transiently transfected on HEK-293 cell line using FuGene® (Promega, Madison, WI, USA). 48 hours after transfection, cells are labeled with the substrate Lumi4-Terbium® (Cisbio, Codolet, France) which covalently reacts with the SNAP-tag, for 1 h at 37° C. […] The Kd is previously obtained in a saturation binding assay on the same cells. […] The plate is next incubated at 21° C. for 2 h. Detection of HTRF signal is performed on the multiplate reader EnVision (PerkinElmer, Waltham, MA, USA). The HTRF (665/620) ratio is calculated by EnVision software, the data exported are considered as the total binding. The specific binding is calculated then by subtracting the non-specific signal from the total binding. The Ki and IC₅₀are calculated using the “One site—Fit Ki” and “One site—FitlogIC50” from GraphPad Prism 9 (Graphpad Software, San Diego, CA, USA), respectively.

CD20 (on B cells) = biological target: T4, CD20 (on B cells) (human, UniProt P11836); assay: flow cytometry on PBMC of healthy donors, B cell gate (CD3-CD19+), % of binding, mean of two donors
T4 construct: native on the surface of B cells (CD3-CD19+) in PBMC of healthy donors; the sheet names the cell type only
T4 sequence (single chain, looked up): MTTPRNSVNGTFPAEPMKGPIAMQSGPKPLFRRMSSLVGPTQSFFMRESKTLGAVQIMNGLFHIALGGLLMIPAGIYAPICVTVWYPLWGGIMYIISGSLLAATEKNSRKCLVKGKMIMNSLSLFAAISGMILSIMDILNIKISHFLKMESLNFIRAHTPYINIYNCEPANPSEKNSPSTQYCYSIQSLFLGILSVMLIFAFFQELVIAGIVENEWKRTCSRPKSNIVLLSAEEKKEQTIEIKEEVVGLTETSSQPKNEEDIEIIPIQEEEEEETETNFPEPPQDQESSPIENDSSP

B1: humanized anti-CCR8 mAb 2-13 (antibody, human IgG1, kappa)
heavy: not shown
light: DIVMTQAAPSLSVTPGESASISCTSSKSLLHSNGNTYLYWFLQKPGQSPQLLIYRMSNLASGVPDRFSGSGSGTAFTLKISRVEAEDVGVYYCMQHREYPFTFGSGTKLEIKRTVAAPSVFIFPPSDEQLKSGTASVVCLLNNFYPREAKVQWKVDNALQSGNSQESVTEQDSKDSTYSLSSTLTLSKADYEKHKVYACEVTHQGLSSPVTKSFNRGEC
notes: Humanized, human IgG1 allotype G1m17 Fc with the terminal lysine deleted and the SDIE mutations
- IC50, CCL1 induced hCCR8 Gi2 signaling (BRET, HEK-293) (human CCR8 [1]): 0.035 µg/mL and 0.232 nM
- hCCL1 (100 nM) residual response in %, Protocol #2, mAb 0.08 µg/mL ([…] nM) (human CCR8 [2]): 74%
- hCCL1 (100 nM) residual response in %, Protocol #2, mAb 0.4 µg/mL (2.67 nM) (human CCR8 [2]): 54%
- hCCL1 (100 nM) residual response in %, Protocol #2, mAb 10 µg/mL (66.7 nM) (human CCR8 [2]): 40%
- hCCL1 (100 nM) residual response in %, Protocol #3, mAb 0.05 µg/mL (0.33 nM) (human CCR8 [2]): 89%
- hCCL1 (100 nM) residual response in %, Protocol #3, mAb 0.5 µg/mL (3.33 nM) (human CCR8 [2]): 63%
- hCCL1 (100 nM) residual response in %, Protocol #3, mAb 5 µg/mL (33.3 nM) (human CCR8 [2]): 51%
- IC50, CCL1 induced hCCR8 Gi2 signaling (BRET) at pH 6.5 (human CCR8 [3]): 0.025 µg/ml and 0.165 nM
- IC50, CCL1 induced hCCR8 Gi2 signaling (BRET) at pH 7.4 (human CCR8 [3]): 0.035 µg/ml and 0.232 nM
- ADCC EC50, HUT78 targets, NK cells Donor 1 (human CCR8 [4]): 6.43 pM
- ADCC EC50, HUT78 targets, NK cells Donor 2 (human CCR8 [4]): 2.16 pM
- ADCP % Max of phagocytosis, HUT78 targets, monocyte-derived macrophages Donor 9 (human CCR8 [5]): 9.65%
- % of labelled cells (human CCR8 [6]): 32%
- binding result [7]: binds
- binding result [8]: binds
- binding result [9]: binds
- binding result [10]: binds
- binding result [11]: binds
- binding result [12]: binds
- binding result [13]: binds
- binding result [14]: binds
- IC50 (hCCR8 SNAP-tag): 0.09 µg/mL and 0.6 nM
- Ki (hCCR8 SNAP-tag): 0.05 µg/mL and 0.3 nM

B2: afucosylated humanized anti-CCR8 mAb 2-16 (antibody, human IgG1, kappa)
heavy: not shown
light: B1 light
modifications: afucosylated Fc glycan
notes: Same chains as 2-13, produced with 2-deoxy-2-fluoro-L-fucose (afucosylated)
- ADCC EC50, HUT78 targets, NK cells Donor 1 (human CCR8 [4]): 2.24 pM
- ADCC EC50, HUT78 targets, NK cells Donor 2 (human CCR8 [4]): 0.42 pM
- ADCP % Max of phagocytosis, HUT78 targets, monocyte-derived macrophages Donor 9 (human CCR8 [5]): 8.29%
- % of labelled cells (human CCR8 [6]): 34%
- EC50 (human CCR8 [6]): 400 pM
- MFI fold change to isotype ctrl (human CCR8 [6]): 2.5 fold

B3: Rituximab (antibody, V domains shown)
VH: QVQLQQPGAELVKPGASVKMSCKASGYTFTSYNMHWVKQTPGRGLEWIGAIYPGNGDTSYNQKFKGKATLTADKSSSTAYMQLSSLTSEDSAVYYCARSTYYGGDWYFNVWGAGTTVTVSA
VL: QIVLSQSPAILSASPGEKVTMTCRASSSVSYIHWFQQKPGSSPKPWIYATSNLASGVPVRFSGSGSGTSYSLTISRVEAEDAATYYCQQWTSNPPTFGGGTKLEIK
- EC50 (read off the curve) (CD20 (on B cells)): ~0.1 µg/mL
